According to paper PMC12416549 (2024):
Substitutions are numbered along the chain they refer to. Names may count otherwise.

T1: TNFR1 (Homo sapiens, UniProt P19438)
T1 chain: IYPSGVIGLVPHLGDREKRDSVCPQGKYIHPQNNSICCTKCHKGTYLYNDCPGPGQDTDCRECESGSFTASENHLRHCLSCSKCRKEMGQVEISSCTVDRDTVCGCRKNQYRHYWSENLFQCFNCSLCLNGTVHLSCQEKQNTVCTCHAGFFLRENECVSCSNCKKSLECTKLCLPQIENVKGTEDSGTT

B1: R13Q (designed binder)
chain: MTLQELLREEALQRAEAEAFRYALELLAEKFPEQKEYLLDLAEEIESQIRSLSGVDVEDVRKFLDKEWAWVKELLAEHPAELAEVEAARAARLAELRAEVEAKVAA
B2: A11G (designed binder)
chain: B1 chain with A11G, Q13R
B3: Q34M (designed binder)
chain: B1 chain with Q13R, Q34M
B4: D65P (designed binder)
chain: B1 chain with Q13R, D65P
B5: L52C (designed binder)
chain: B1 chain with Q13R, L52C
B6: E10P (designed binder)
chain: B1 chain with E10P, Q13R
B7: L41I (designed binder)
chain: B1 chain with Q13R, L41I
B8: E46D (designed binder)
chain: B1 chain with Q13R, E46D
B9: V57S (designed binder)
chain: B1 chain with Q13R, V57S
B10: Q34S (designed binder)
chain: B1 chain with Q13R, Q34S
B11: D40Y (designed binder)
chain: B1 chain with Q13R, D40Y
B12: I45A (designed binder)
chain: B1 chain with Q13R, I45A
B13: L6A (designed binder)
chain: B1 chain with L6A, Q13R
B14: V85D (designed binder)
chain: B1 chain with Q13R, V85D
B15: L3G (designed binder)
chain: B1 chain with L3G, Q13R
B16: A23N (designed binder)
chain: B1 chain with Q13R, A23N
B17: L52S (designed binder)
chain: B1 chain with Q13R, L52S
B18: V71K (designed binder)
chain: B1 chain with Q13R, V71K
B19: R97S (designed binder)
chain: B1 chain with Q13R, R97S
B20: A19G (designed binder)
chain: B1 chain with Q13R, A19G
B21: K72F (designed binder)
chain: B1 chain with Q13R, K72F
B22: E43Y (designed binder)
chain: B1 chain with Q13R, E43Y
B23: L96V (designed binder)
chain: B1 chain with Q13R, L96V
B24: E43H (designed binder)
chain: B1 chain with Q13R, E43H
B25: A17V (designed binder)
chain: B1 chain with Q13R, A17V
B26: L52P (designed binder)
chain: B1 chain with Q13R, L52P
B27: R97E (designed binder)
chain: B1 chain with Q13R, R97E
B28: H78M (designed binder)
chain: B1 chain with Q13R, H78M
B29: A87Y (designed binder)
chain: B1 chain with Q13R, A87Y
B30: K35N (designed binder)
chain: B1 chain with Q13R, K35N
B31: R13H (designed binder)
chain: B1 chain with Q13H
B32: E18L (designed binder)
chain: B1 chain with Q13R, E18L
B33: E5R (designed binder)
chain: B1 chain with E5R, Q13R
B34: E101C (designed binder)
chain: B1 chain with Q13R, E101C
B35: E10V (designed binder)
chain: B1 chain with E10V, Q13R
B36: K35L (designed binder)
chain: B1 chain with Q13R, K35L
B37: E95N (designed binder)
chain: B1 chain with Q13R, E95N
B38: A102G (designed binder)
chain: B1 chain with Q13R, A102G
B39: L12M (designed binder)
chain: B1 chain with L12M, Q13R
B40: V57N (designed binder)
chain: B1 chain with Q13R, V57N
B41: F63V (designed binder)
chain: B1 chain with Q13R, F63V
B42: L64K (designed binder)
chain: B1 chain with Q13R, L64K
B43: V104P (designed binder)
chain: B1 chain with Q13R, V104P
B44: R89S (designed binder)
chain: B1 chain with Q13R, R89S
B45: E18S (designed binder)
chain: B1 chain with Q13R, E18S
B46: S51R (designed binder)
chain: B1 chain with Q13R, S51R
B47: R21W (designed binder)
chain: B1 chain with Q13R, R21W
B48: E44Q (designed binder)
chain: B1 chain with Q13R, E44Q
B49: E16W (designed binder)
chain: B1 chain with Q13R, E16W
B50: S47Q (designed binder)
chain: B1 chain with Q13R, S47Q
B51: E99L (designed binder)
chain: B1 chain with Q13R, E99L
B52: A90W (designed binder)
chain: B1 chain with Q13R, A90W
B53: E67P (designed binder)
chain: B1 chain with Q13R, E67P
B54: S51F (designed binder)
chain: B1 chain with Q13R, S51F
B55: D40K (designed binder)
chain: B1 chain with Q13R, D40K

Target: T1, TNFR1
Test: yeast display SC50

Binder | apparent Kd (screen) [nM]
B1 | 0.142
B2 | 0.956
B3 | 2.73
B4 | 26.9
B5 | 2.48
B6 | 12.5
B7 | 2.73
B8 | 0.539
B9 | 0.653
B10 | 0.49
B11 | 11.4
B12 | 13.8
B13 | 1.54
B14 | 6.43
B15 | 20.2
B16 | 0.405
B17 | 1.16
B18 | 12.5
B19 | 0.956
B20 | 0.593
B21 | 0.593
B22 | 0.142
B23 | 0.446
B24 | 0.718
B25 | 0.446
B26 | 6.43
B27 | 0.956
B28 | 0.49

Binder | apparent Kd (screen) [nM]
B29 | 0.79
B30 | 0.405
B31 | 0.405
B32 | 0.539
B33 | 0.49
B34 | 0.49
B35 | 0.956
B36 | 0.405
B37 | 0.718
B38 | 0.653
B39 | 0.593
B40 | 1.54
B41 | 1.27
B42 | 20.2
B43 | 0.718
B44 | 0.79
B45 | 0.405
B46 | 1.05
B47 | 0.49
B48 | 9.41
B49 | 1.16
B50 | 0.956
B51 | 0.653
B52 | 0.539
B53 | 5.31
B54 | 0.368
B55 | 9.41
